Data from patent US10501734B2, “Compositions and methods of use thereof for making polypeptides with many instances of nonstandard amino acids” (Yale University, priority 2014, dated 2019).
Residue numbers refer to the chain shown, from its start. Numbers in names are those of the source.

B1: pAcFRS.1.t1: pAcFRS variant A167D, R257G, SEQ ID NO: 5 (protein)
chain: MDEFEMIKRNTSEIISEEELREVLKKDEKSALIGFEPSGKIHLGHYLQIKKMIDLQNAGFDIIILLADLHAYLNQKGELDEIRKIGDYNKKVFEAMGLKAKYVYGSEFQLDKDYTLNVYRLALKTTLKRARRSMELIAREDENPKVAEVIYPIMQVNGCHYRGVDVDVGGMEQRKIHMLARELLPKKVVCIHNPVLTGLDGEGKMSSSKGNFIAVDDSPEEIRAKIKKAYCPAGVVEGNPIMEIAKYFLEYPLTIKGPEKFGGDLTVNSYEELESLFKNKELHPMRLKNAVAEELIKILEPIRKRL
B2: pAcFRS.2.t1: pAcFRS variant L65V, A167D, R257G, SEQ ID NO: 8 (protein)
chain: B1 chain with L65V
B3: pAzFRS.1.t1: pAcFRS variant D158V, I159M, L162D, A167Y, R257G, SEQ ID NO: 11 (protein)
chain: MDEFEMIKRNTSEIISEEELREVLKKDEKSALIGFEPSGKIHLGHYLQIKKMIDLQNAGFDIIILLADLHAYLNQKGELDEIRKIGDYNKKVFEAMGLKAKYVYGSEFQLDKDYTLNVYRLALKTTLKRARRSMELIAREDENPKVAEVIYPIMQVNVMHYDGVDVYVGGMEQRKIHMLARELLPKKVVCIHNPVLTGLDGEGKMSSSKGNFIAVDDSPEEIRAKIKKAYCPAGVVEGNPIMMEIAKYFLEYPLTIKGPEKFGGDLTVNSYEELESLFKNKELHPMRLKNAVAEELIKILEPIRKRL
B4: pAzFRS.2.t1: pAcFRS variant E107T, F108Y, Q109M, R257G, SEQ ID NO: 14 (protein)
chain: B1 chain with E107T, F108Y, Q109M, D167A
B5: pAcFRS: progenitor M. jannaschii based p-acetyl-L-phenylalanine AARS, SEQ ID NO:1 (Young, et al., 2010) (protein, listed as Methanocaldococcus jannaschii)
chain: B1 chain with D167A, G257R

Tests used:
TAG codons = experiment: MRM mass spectrometry quantitation of nsAA incorporation in ELP-GFP; set-up: species or system E. coli; conditions: for pAcF (Y) / pAcF: calculated as 100%−Y %−F %; for near cognate suppression and mischarging events of K, P, L/I, and Q: content in proteins produced
Experimental: Purified ELP-GFP protein was dissolved by vortex in protein solubilization buffer (15 mM Tris-HCl, 1.5 mM EDTA, pH=8.5) and the protein concentration was determined by UV280. Solubilization buffer was then added to adjust the concentration of the protein stock solutions to 2.0 μg/μl. For protein digestion, 12.5 μl of this solution (25 μg) was supplemented with 3.125 μl freshly prepared digestion buffer 5×. The composition of the digestion buffer 5× was: 50 mM Tris-HCl pH=8.5, 5 mM EDTA, 50 mM DTT and 2.5% (w/v) freshly prepared acid labile surfactant II (ALS II). Proteins were thermally denatured in a heat block at 95° C. for 5 min and the reaction was then quenched on ice. To alkylate the cysteines, 2.5 μl of 1 M Tris-HCl buffer (pH=8.5) and 5.83 μl freshly prepared 100 mM IAA solution were added. The reaction proceeded for 30 min at room temperature and in the dark. Excess IAA was quenched with 0.875 μl of 200 mM aqueous DTT solution. Next, 1.25 μl LysC enzyme solution, prepared at 7.0×10^−4 activity units/μl in water, were added and protein was digested for 4 h at 37° C. in an incubator without shaking. The digest was supplemented with 157.77 μl 105.6 mM Tris-HCl pH=8.5 buffer containing 5.28 mM CaCl2. For digestion with trypsin, 3.6 μl sequencing grade porcine trypsin (Promega), provided as solution with 0.5 μg/μl trypsin, was added and digestion proceeded for 15 h at 37° C. in an incubator without shaking. The digest was quenched by adding 15.63 μl 20% TFA solution. The pH value of the digest was tested with pH indicator paper to ensure that the pH value was between a value of 1 and 2 to ensure efficient cleavage conditions for ALSII. Detergent was hydrolyzed for 15 min at 23° C. and peptides were desalted using C18 UltraMicroSpin columns (The Nest Group, Southborough, Mass.) following the instructions provided with the columns. Eluted peptides solutions were dried in a vacuum centrifuge which was operated at 45° C. The dried peptides were then dissolved by vortex in 11 μl peptide solvent consisting of 2:3:7 by volume 70% FA, 1-propanol and 0.5% acetic acid. The peptide concentration was determined by UV280 enabling equal loading for LC-MS. Peptide stock solutions were frozen at −80° C. until use. For shotgun proteomic analysis, peptide stock solutions were diluted to a concentration of 60 ng/μl in 3:8 by volume 70% formic acid 0.1 TFA and 5 μl corresponding to 300 ng total peptides were injected for each analysis.
The C-terminally labeled stable isotope labeled peptides (lysine (^13C6^15N2) or arginine (^13C6^15N4)) VPGAGVPGYGVPGVGK, VPGAGVPGFGVPGVGK and FEGDTLVNR were obtained as a lyophilized powder supplied as 1 nmol aliquots. Peptides were dissolved in 30% acetonitrile 0.1% formic acid at a concentration of 20 pmol/μl. Standards were then combined to obtain a master mix with 6.666 pmol/μl of each peptide. Dilution of peptide standards and protein digest for MRM was performed in Agilent polypropylene sample vials with MRM solvent consisting of 100 ng/μl sodium deoxycholate in 3:7 by volume DMSO/0.1% formic acid. Calibration of the instrument was performed with a 11 point calibration curve with 0, 1, 2, 5, 10, 20, 50, 100, 200, 500 and 1000 fmol peptide injected. Peptide stock solutions from the digestion of ELP-GFP were prepared at 5 ng/μl in MRM solvent containing 50 fmol/μl of the stable isotope labeled peptides. MRM solvent blank injections between sample injections and quality control standards analyzed before and after sample injection ensured consistent performance of the MRM platform.
Shotgun discovery data from the analysis of stable isotope labeled peptides and ELP-GFP digests were imported into Skyline^2 software v. 2.5 to extracted suitable transitions for MRM quantitation of peptides. A detailed description of this workflow will be reported somewhere else^3. Briefly, at least 3 transitions were extracted for peptides reporting incorporation of natural and unnatural amino acids at the position of the stop codon. […]

ELP(30TAG)-GFP = experiment: Intact cell GFP fluorescence, ELP(30TAG)-GFP production; type: cell-based, E. coli; conditions: plasmid-based OTSs; panel of 14 nsAAs
Experimental: Liquid cell cultures of strains harboring chromosomally integrated OTSs and GFP reporter plasmids were inoculated from frozen stocks and grown to confluence overnight. Cultures were then inoculated at 1:20 dilution in LBmin media supplemented with 30 μg/ml kanamycin. Strains were inoculated by addition of 1:20 confluent cell culture (grown overnight) and allowed to grow at 34° C. to an OD600 of 0.5-0.8 in a shaking plate incubator at 650 r.p.m (˜3 h). AARS expression was then induced by the addition of 0.2% arabinose, GFP expression was induced by the addition of 60 ng/ul anhydrotetracycline, and the appropriate nsAA was added to a concentration of 1 mM. Cells were incubated at 34° C. for an additional 16 h. Liquid cell cultures of strains harboring plasmid-based OTSs and GFP or ELP-GFP reporter plasmids were inoculated from frozen stocks and grown to confluence overnight. Cultures were then inoculated at 1:20 dilution in 2×YT media supplemented with 30 μg/ml kanamycin and 20 μg/ml chloramphenicol. […] Cells were allowed to grow at 34° C. to an OD600 of 0.5-0.8 in a shaking plate incubator at 650 r.p.m (˜3 h), reporter protein expression was then induced by the addition of 60 ng/ul anhydrotetracycline, and cells were incubated at 34° C. for an additional 16 h.
For 384 well plate-based assays, fluorescence and OD600 were directly measured following expression. For 96 well plate-based assays, cells were centrifuged at 4,000 g for 4 min. Supernatant medium was removed and cells were resuspended in PBS. This process was repeated twice with PBS. GFP fluorescence was measured on a Biotek spectrophotometric plate reader using excitation and emission wavelengths of 395 and 509 nm, respectively). Fluorescence signals were normalized by dividing the fluorescence counts by the OD600 reading. The nsAAs used in this study were purchased from Sigma-Aldrich (St. Louis, Mo.), Chemlmpex (Wood Dale, Ill.), and Bachem (Torrance, Calif.). Solutions of nsAAs (50 mM) were made in water or 50 mM NaOH; these stock solutions were diluted 50- or 100-fold (to 1 mM final concentration) into medium used for bacterial growth.

[1] = ELP(10TAG)-GFPMS, nsAA added pAcF
[2] = ELP(30TAG)-GFPMS, nsAA added pAcF
[3] = ELP(10TAG)-GFPMS, nsAA added pAzF, N = 3
[4] = ELP(10TAG)MS-ELP(20TAG)-GFP, nsAA added pAcF
[5] = ELP(20TAG)-ELP(10TAG)MS-GFP, nsAA added pAcF

Molecule	F at TAG position (TAG codons; [1])	Y at TAG position (TAG codons; [1])	pAcF (Y) (TAG codons; [1])	F at TAG position (TAG codons; [2])	Y at TAG position (TAG codons; [2])	pAcF (TAG codons; [2])	near cognate suppression and mischarging events of K, P, L/I, and Q (TAG codons)	nsAA specificity in ELP(30TAG)-GFP production (ELP(30TAG)-GFP)	also measured
B1	0.26%	2.42%	97.32%	0.29%	1.53%	98.18%	striking decrease		
B2								for pAcF over pAzF decreases when expressed on a multi-copy plasmid	
B3								maintains stringent specificity for pAzF	F at TAG position (TAG codons; [3]): 3.34%; Y at TAG position (TAG codons; [3]): 0.13%
B4	2.45%	2.08%	95.47%	2.87%	1.78%	95.35%	striking decrease		F at TAG position (TAG codons; ELP(10TAG)-GFPMS, No nsAA): 55.35%; Y at TAG position (TAG codons; ELP(10TAG)-GFPMS, No nsAA): 50.15%; pAcF (Y) (TAG codons; ELP(10TAG)-GFPMS, No nsAA): −5.50%; F at TAG position (TAG codons; [4]): 3.74%; Y at TAG position (TAG codons; [4]): 2.19%; pAcF (TAG codons; [4]): 94.06%; F at TAG position (TAG codons; [5]): 3.25%; Y at TAG position (TAG codons; [5]): 2.17%; pAcF (TAG codons; [5]): 94.58%
B5	0.36%	1.37%	98.26%	0.55%	1.14%	98.31%			
